The chains are these.
B1: Dom1-3His (extracytoplasmic domains 1-3 of the bovine CI-MPR, residues 1-432, C-terminal His6) (domain or fragment, UniProt P08169 45-476, looked up)
chain: AAGTQGAEFPELCSYTWEAVDTKNNMLYKINICGNMGVAQCGPSSAVCMHDLKTDSFHSVGDSLLKTASRSLLEFNTTVNCKQQNHKIQSSITFLCGKTLGTPEFVTATDCVHYFEWRTTAACKKNIFKANKEVPCYAFDRELKKHDLNPLIKTSGAYLVDDSDPDTSLFINVCRDIEVLRASSPQVRVCPTGAAACLVRGDRAFDVGRPQEGLKLVSNDRLVLSYVKEGAGQPDFCDGHSPAVTITFVCPSERREGTIPKLTAKSNCRFEIEWVTEYACHRDYLESRSCSLSSAQHDVAVDLQPLSRVEASDSLFYTSEADEYTYYLSICGGSQAPICNKKDAAVCQVKKADSTQVKVAGRPQNLTLRYSDGDLTLIYFGGEECSSGFQRMSVINFECNQTAGNNGRGAPVFTGEVDCTYFFTWDTKYACV

Holding throughout (experiment): SPR
On the technique in general: SPR reads the build-up and loss of mass on a sensor chip optically.

Experiment [1] has as its target T1, human β-glucuronidase (human, UniProt P08236 23-651, mannose 6-phosphate on its glycans (Man-6-P-containing lysosomal enzyme; nonphosphorylated enzyme removed)).
T1 sequence (looked up): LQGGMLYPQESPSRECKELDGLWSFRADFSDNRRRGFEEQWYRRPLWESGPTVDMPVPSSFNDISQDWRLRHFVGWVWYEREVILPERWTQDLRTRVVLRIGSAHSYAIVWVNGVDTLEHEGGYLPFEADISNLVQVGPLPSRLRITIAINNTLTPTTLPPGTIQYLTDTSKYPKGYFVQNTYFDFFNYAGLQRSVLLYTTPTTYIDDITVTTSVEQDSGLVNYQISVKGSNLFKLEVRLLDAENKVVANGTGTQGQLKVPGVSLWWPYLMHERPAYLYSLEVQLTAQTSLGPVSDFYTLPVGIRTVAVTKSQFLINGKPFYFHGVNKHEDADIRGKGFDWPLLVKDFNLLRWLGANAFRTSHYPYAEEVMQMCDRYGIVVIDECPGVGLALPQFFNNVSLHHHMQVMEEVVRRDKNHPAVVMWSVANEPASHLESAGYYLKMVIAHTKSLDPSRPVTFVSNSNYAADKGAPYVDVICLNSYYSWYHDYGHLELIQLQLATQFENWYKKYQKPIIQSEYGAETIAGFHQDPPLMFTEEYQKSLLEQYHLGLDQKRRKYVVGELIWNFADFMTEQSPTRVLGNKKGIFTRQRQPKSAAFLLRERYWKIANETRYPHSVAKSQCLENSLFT

In a further experiment the target is human prothrombin (human, plasma-purified zymogen; gamma-carboxyglutamate in Gla domain, N-glycosylated, disulfides (by convention, not given)).
Experiment [2] has as its target T1, human β-glucuronidase. This is another data set of the same source.
Experiment [3] has as its target B1.

Like-named read-outs stand apart in the source and are kept apart here. Where only a bound is given, the exact number is not on record here.

Consider 10 molecules from article PMC2814163 (Biochemistry, 2010).

What is called Kd is the free concentration of one partner at which half of the binding sites on the other are occupied at equilibrium, for simple one-to-one binding. Low readings indicate tighter binding, high ones weaker binding.

Take B1: the results for the Kd with human β-glucuronidase [1] and with human prothrombin were 10 ± 2 nM and over 2500 nM, respectively.

B2: Dom1-3HisK98A (domain or fragment, bovine, UniProt P08169 45-476, looked up)
chain: AAGTQGAEFPELCSYTWEAVDTKNNMLYKINICGNMGVAQCGPSSAVCMHDLKTDSFHSVGDSLLKTASRSLLEFNTTVNCKQQNHKIQSSITFLCGATLGTPEFVTATDCVHYFEWRTTAACKKNIFKANKEVPCYAFDRELKKHDLNPLIKTSGAYLVDDSDPDTSLFINVCRDIEVLRASSPQVRVCPTGAAACLVRGDRAFDVGRPQEGLKLVSNDRLVLSYVKEGAGQPDFCDGHSPAVTITFVCPSERREGTIPKLTAKSNCRFEIEWVTEYACHRDYLESRSCSLSSAQHDVAVDLQPLSRVEASDSLFYTSEADEYTYYLSICGGSQAPICNKKDAAVCQVKKADSTQVKVAGRPQNLTLRYSDGDLTLIYFGGEECSSGFQRMSVINFECNQTAGNNGRGAPVFTGEVDCTYFFTWDTKYACV
Molecule B2 showed a Kd with human β-glucuronidase [2] of 17 ± 1 nM.

B3: Dom1-3HisK132A (domain or fragment, bovine, UniProt P08169 45-476, looked up)
chain: AAGTQGAEFPELCSYTWEAVDTKNNMLYKINICGNMGVAQCGPSSAVCMHDLKTDSFHSVGDSLLKTASRSLLEFNTTVNCKQQNHKIQSSITFLCGKTLGTPEFVTATDCVHYFEWRTTAACKKNIFKANAEVPCYAFDRELKKHDLNPLIKTSGAYLVDDSDPDTSLFINVCRDIEVLRASSPQVRVCPTGAAACLVRGDRAFDVGRPQEGLKLVSNDRLVLSYVKEGAGQPDFCDGHSPAVTITFVCPSERREGTIPKLTAKSNCRFEIEWVTEYACHRDYLESRSCSLSSAQHDVAVDLQPLSRVEASDSLFYTSEADEYTYYLSICGGSQAPICNKKDAAVCQVKKADSTQVKVAGRPQNLTLRYSDGDLTLIYFGGEECSSGFQRMSVINFECNQTAGNNGRGAPVFTGEVDCTYFFTWDTKYACV
In the experiment with human β-glucuronidase [2], B3 came in with a Kd of 35 ± 4 nM.

B4: Dom1-3HisK215A (domain or fragment, bovine, UniProt P08169 45-476, looked up)
chain: AAGTQGAEFPELCSYTWEAVDTKNNMLYKINICGNMGVAQCGPSSAVCMHDLKTDSFHSVGDSLLKTASRSLLEFNTTVNCKQQNHKIQSSITFLCGKTLGTPEFVTATDCVHYFEWRTTAACKKNIFKANKEVPCYAFDRELKKHDLNPLIKTSGAYLVDDSDPDTSLFINVCRDIEVLRASSPQVRVCPTGAAACLVRGDRAFDVGRPQEGLALVSNDRLVLSYVKEGAGQPDFCDGHSPAVTITFVCPSERREGTIPKLTAKSNCRFEIEWVTEYACHRDYLESRSCSLSSAQHDVAVDLQPLSRVEASDSLFYTSEADEYTYYLSICGGSQAPICNKKDAAVCQVKKADSTQVKVAGRPQNLTLRYSDGDLTLIYFGGEECSSGFQRMSVINFECNQTAGNNGRGAPVFTGEVDCTYFFTWDTKYACV
In the case of B4, in the experiment with human β-glucuronidase [2], binding was characterised by a dissociation constant (Kd) of 18 ± 2 nM.

B5: Dom1-3HisK82A (domain or fragment, bovine, UniProt P08169 45-476, looked up)
chain: AAGTQGAEFPELCSYTWEAVDTKNNMLYKINICGNMGVAQCGPSSAVCMHDLKTDSFHSVGDSLLKTASRSLLEFNTTVNCAQQNHKIQSSITFLCGKTLGTPEFVTATDCVHYFEWRTTAACKKNIFKANKEVPCYAFDRELKKHDLNPLIKTSGAYLVDDSDPDTSLFINVCRDIEVLRASSPQVRVCPTGAAACLVRGDRAFDVGRPQEGLKLVSNDRLVLSYVKEGAGQPDFCDGHSPAVTITFVCPSERREGTIPKLTAKSNCRFEIEWVTEYACHRDYLESRSCSLSSAQHDVAVDLQPLSRVEASDSLFYTSEADEYTYYLSICGGSQAPICNKKDAAVCQVKKADSTQVKVAGRPQNLTLRYSDGDLTLIYFGGEECSSGFQRMSVINFECNQTAGNNGRGAPVFTGEVDCTYFFTWDTKYACV
In turn, B5 displayed a Kd with human β-glucuronidase [2] of 17 ± 2 nM.

B6: Dom1-3HisK23A (domain or fragment, bovine, UniProt P08169 45-476, looked up)
chain: AAGTQGAEFPELCSYTWEAVDTANNMLYKINICGNMGVAQCGPSSAVCMHDLKTDSFHSVGDSLLKTASRSLLEFNTTVNCKQQNHKIQSSITFLCGKTLGTPEFVTATDCVHYFEWRTTAACKKNIFKANKEVPCYAFDRELKKHDLNPLIKTSGAYLVDDSDPDTSLFINVCRDIEVLRASSPQVRVCPTGAAACLVRGDRAFDVGRPQEGLKLVSNDRLVLSYVKEGAGQPDFCDGHSPAVTITFVCPSERREGTIPKLTAKSNCRFEIEWVTEYACHRDYLESRSCSLSSAQHDVAVDLQPLSRVEASDSLFYTSEADEYTYYLSICGGSQAPICNKKDAAVCQVKKADSTQVKVAGRPQNLTLRYSDGDLTLIYFGGEECSSGFQRMSVINFECNQTAGNNGRGAPVFTGEVDCTYFFTWDTKYACV
As for B6, the Kd with human β-glucuronidase [2] was 14 ± 1 nM.

B7: Dom1-3HisK53A (domain or fragment, bovine, UniProt P08169 45-476, looked up)
chain: AAGTQGAEFPELCSYTWEAVDTKNNMLYKINICGNMGVAQCGPSSAVCMHDLATDSFHSVGDSLLKTASRSLLEFNTTVNCKQQNHKIQSSITFLCGKTLGTPEFVTATDCVHYFEWRTTAACKKNIFKANKEVPCYAFDRELKKHDLNPLIKTSGAYLVDDSDPDTSLFINVCRDIEVLRASSPQVRVCPTGAAACLVRGDRAFDVGRPQEGLKLVSNDRLVLSYVKEGAGQPDFCDGHSPAVTITFVCPSERREGTIPKLTAKSNCRFEIEWVTEYACHRDYLESRSCSLSSAQHDVAVDLQPLSRVEASDSLFYTSEADEYTYYLSICGGSQAPICNKKDAAVCQVKKADSTQVKVAGRPQNLTLRYSDGDLTLIYFGGEECSSGFQRMSVINFECNQTAGNNGRGAPVFTGEVDCTYFFTWDTKYACV
In turn, B7 registered a Kd with human β-glucuronidase [2] of 17 ± 2 nM.

B8: Dom1-3HisR118A (domain or fragment, bovine, UniProt P08169 45-476, looked up)
chain: AAGTQGAEFPELCSYTWEAVDTKNNMLYKINICGNMGVAQCGPSSAVCMHDLKTDSFHSVGDSLLKTASRSLLEFNTTVNCKQQNHKIQSSITFLCGKTLGTPEFVTATDCVHYFEWATTAACKKNIFKANKEVPCYAFDRELKKHDLNPLIKTSGAYLVDDSDPDTSLFINVCRDIEVLRASSPQVRVCPTGAAACLVRGDRAFDVGRPQEGLKLVSNDRLVLSYVKEGAGQPDFCDGHSPAVTITFVCPSERREGTIPKLTAKSNCRFEIEWVTEYACHRDYLESRSCSLSSAQHDVAVDLQPLSRVEASDSLFYTSEADEYTYYLSICGGSQAPICNKKDAAVCQVKKADSTQVKVAGRPQNLTLRYSDGDLTLIYFGGEECSSGFQRMSVINFECNQTAGNNGRGAPVFTGEVDCTYFFTWDTKYACV
Molecule B8 showed a Kd with human β-glucuronidase [2] of 12 ± 1 nM.

B9: Dom1-3HisK125A (domain or fragment, bovine, UniProt P08169 45-476, looked up)
chain: AAGTQGAEFPELCSYTWEAVDTKNNMLYKINICGNMGVAQCGPSSAVCMHDLKTDSFHSVGDSLLKTASRSLLEFNTTVNCKQQNHKIQSSITFLCGKTLGTPEFVTATDCVHYFEWRTTAACKANIFKANKEVPCYAFDRELKKHDLNPLIKTSGAYLVDDSDPDTSLFINVCRDIEVLRASSPQVRVCPTGAAACLVRGDRAFDVGRPQEGLKLVSNDRLVLSYVKEGAGQPDFCDGHSPAVTITFVCPSERREGTIPKLTAKSNCRFEIEWVTEYACHRDYLESRSCSLSSAQHDVAVDLQPLSRVEASDSLFYTSEADEYTYYLSICGGSQAPICNKKDAAVCQVKKADSTQVKVAGRPQNLTLRYSDGDLTLIYFGGEECSSGFQRMSVINFECNQTAGNNGRGAPVFTGEVDCTYFFTWDTKYACV
On to B9, for which the Kd in the experiment with human β-glucuronidase [2] was 26 ± 2 nM.

B10: bovine prothrombin (natural protein)
chain: not shown
modifications: plasma-purified zymogen; gamma-carboxyglutamate in Gla domain, N-glycosylated, disulfides (by convention, not given)
Molecule B10 came in with a Kd in experiment [3] of over 2500 nM.
